# Data as given in IntAct's records for PubMed 29789297.
# B1: Casein kinase I isoform alpha (Homo sapiens), P48729 (parent)
# chain: MASSSGSKAEFIVGGKYKLVRKIGSGSFGDIYLAINITNGEEVAVKLESQKARHPQLLYESKLYKILQGGVGIPHIRWYGQEKDYNVLVMDLLGPSLEDLFNFCSRRFTMKTVLMLADQMISRIEYVHTKNFIHRDIKPDNFLMGIGRHCNKLFLIDFGLAKKYRDNRTRQHIPYREDKNLTGTARYASINAHLGIEQSRRDDMESLGYVLMYFNRTSLPWQGLKAATKKQKYEKISEKKMSTPVEVLCKGFPAEFAMYLNYCRGLRFEEAPDYMYLRQLFRILFRTLNHQYDYTFDWTMLKQKAAQQAASSSGQGQQAQTPTGKQTDKTKSNMKGF
# partner: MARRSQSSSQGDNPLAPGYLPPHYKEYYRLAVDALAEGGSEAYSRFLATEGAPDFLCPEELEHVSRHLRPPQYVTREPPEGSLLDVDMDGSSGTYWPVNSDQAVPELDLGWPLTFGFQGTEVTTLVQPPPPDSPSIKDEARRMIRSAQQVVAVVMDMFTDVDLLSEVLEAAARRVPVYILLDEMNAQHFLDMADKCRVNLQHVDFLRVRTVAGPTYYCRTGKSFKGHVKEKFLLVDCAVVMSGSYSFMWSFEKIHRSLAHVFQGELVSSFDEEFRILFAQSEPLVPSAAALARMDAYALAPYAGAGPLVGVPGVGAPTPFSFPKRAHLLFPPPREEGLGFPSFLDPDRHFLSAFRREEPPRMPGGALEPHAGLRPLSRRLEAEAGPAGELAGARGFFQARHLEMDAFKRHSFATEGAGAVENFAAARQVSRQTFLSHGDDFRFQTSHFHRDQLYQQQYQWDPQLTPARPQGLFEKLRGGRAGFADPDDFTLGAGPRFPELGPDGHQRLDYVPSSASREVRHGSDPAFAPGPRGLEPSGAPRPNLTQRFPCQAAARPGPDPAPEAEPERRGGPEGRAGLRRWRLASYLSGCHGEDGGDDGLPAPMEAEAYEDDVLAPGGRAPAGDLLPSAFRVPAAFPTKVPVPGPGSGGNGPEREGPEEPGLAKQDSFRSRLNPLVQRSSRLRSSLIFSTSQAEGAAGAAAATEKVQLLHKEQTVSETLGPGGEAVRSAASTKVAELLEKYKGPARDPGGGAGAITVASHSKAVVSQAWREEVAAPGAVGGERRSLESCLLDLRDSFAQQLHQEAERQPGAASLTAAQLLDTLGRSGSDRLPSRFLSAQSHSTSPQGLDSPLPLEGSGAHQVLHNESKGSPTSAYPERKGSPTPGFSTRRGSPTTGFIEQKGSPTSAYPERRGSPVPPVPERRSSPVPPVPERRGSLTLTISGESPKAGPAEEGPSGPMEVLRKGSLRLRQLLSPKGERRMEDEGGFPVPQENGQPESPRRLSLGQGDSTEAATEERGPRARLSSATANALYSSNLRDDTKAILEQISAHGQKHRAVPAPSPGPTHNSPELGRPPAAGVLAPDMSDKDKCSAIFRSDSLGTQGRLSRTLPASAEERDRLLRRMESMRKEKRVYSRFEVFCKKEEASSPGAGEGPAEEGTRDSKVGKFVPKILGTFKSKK
# B2: Protein FAM83F (Homo sapiens), Q8NEG4 (parent)
# chain: MAESQLNCLDEAHVNEKVTEAQAAFYYCERRRAALEALLGGGEQAYRERLKEEQLRDFLSSPERQALRAAWSPYEDAVPAANARGKSKAKAKAPAPAPAESGESLAYWPDRSDTEVPPLDLGWTDTGFYRGVSRVTLFTHPPKDEKAPHLKQVVRQMIQQAQKVIAVVMDLFTDGDIFQDIVDAACKRRVPVYIILDEAGVKYFLEMCQDLQLTDFRIRNIRVRSVTGVGFYMPMGRIKGTLSSRFLMVDGDKVATGSYRFTWSSSHVDRNLLLLLTGQNVEPFDTEFRELYAISEEVDLYRQLSLAGRVGLHYSSTVARKLINPKYALVSGCRHPPGEMMRWAARQQREAGGNPEGQEEGASGGESAWRLESFLKDLVTVEQVLPPVEPIPLGELSQKDGRMVSHMHRDLKPKSREAPSRNGMGEAARGEAAPARRFSSRLFSRRAKRPAAPNGMASSVSTETSEVEFLTGKRPNENSSADISGKTSPSSAKPSNCVIS
# B3: Protein FAM83G (Homo sapiens), A6ND36 (parent)
# chain: MAFSQVQCLDDNHVNWRSSESKPEFFYSEEQRLALEALVARGRDAFYEVLKRENIRDFLSELELKRILETIEVYDPGSEDPRGTGPSQGPEDNGVGDGEEASGADGVPIEAEPLPSLEYWPQKSDRSIPQLDLGWPDTIAYRGVTRASVYMQPPIDGQAHIKEVVRKMISQAQKVIAVVMDMFTDVDIFKDLLDAGFKRKVAVYIIVDESNVKYFLHMCERACMHLGHLKNLRVRSSGGTEFFTRSATKFKGALAQKFMFVDGDRAVCGSYSFTWSAARTDRNVISVLSGQVVEMFDRQFQELYLMSHSVSLKGIPMEKEPEPEPIVLPSVVPLVPAGTVAKKLVNPKYALVKAKSVDEIAKISSEKQEAKKPLGLKGPALAEHPGELPELLPPIHPGLLHLERANMFEYLPTWVEPDPEPGSDILGYINIIDPNIWNPQPSQMNRIKIRDTSQASAQHQLWKQSQDSRPRPEPCPPPEPSAPQDGVPAENGLPQGDPEPLPPVPKPRTVPVADVLARDSSDIGWVLELPKEEAPQNGTDHRLPRMAGPGHAPLQRQLSVTQDDPESLGVGLPNGLDGVEEEDDDDYVTLSDQDSHSGSSGRGPGPRRPSVASSVSEEYFEVREHSVPLRRRHSEQVANGPTPPPRRQLSAPHITRGTFVGPQGGSPWAQSRGREEADALKRMQAQRSTDKEAQGQQFHHHRVPASGTRDKDGFPGPPRYRSAADSVQSSTRNAGPAMAGPHHWQAKGGQVPRLLPDPGSPRLAQNARPMTDGRATEEHPSPFGIPYSKLSQSKHLKARTGGSQWASSDSKRRAQAPRDRKDP
# B4: Casein kinase I isoform alpha (Homo sapiens), P48729 (parent)
# chain: B1 chain
# B5: Casein kinase I isoform alpha (Homo sapiens), P48729 (parent)
# chain: B1 chain
# partner: B3 chain
# B6: Protein FAM83C (Homo sapiens), Q9BQN1 (parent)
# chain: MFGGPGPGVLGAQGMAGPLRGRVEELKLPWWRESSPLVLRHSEAARLAADALLERGEAAYLRVISEERELPFLSALDVDYMTSHVRGGPELSEAQGQEASGPDRLSLLSEVTSGTYFPMASDIDPPDLDLGWPEVPQATGFSPTQAVVHFQRDKAKNIKDLLRFLFSQAHTVVAVVMDIFTDMELLCDLMEASSRRGVPVYLLLAQEHLRHFLEMCYKMDLNGEHLPNMRVRSTCGDTYCSKAGRRFTGQALEKFVLIDCEQVVAGSYSFTWLCSQAHTSMVLQLRGRIVEDFDREFRCLYAESQPVEGFCGGEDPLSPRALRPPPVALAFRPDVPSPTSSLPSSTSLSSIKQSPLMGRSSYLALPGGGDCSDTGVVSSSLGPARREASGQPSLHRQLSDPNHGSPPGLYRANLGKLGAYPWSQSSPALNHNSTSPLTLAVGSPLLPRSRPLLQFHRGAPALSRFPENGLPGSQEPSPLRGRWVPGTTLETVEEKEKKASPSQSRGQLDLLVPFPRAREVGDPDSGVTPNSGPLRPGEQAPEDRRLSPSQADSQLDLLSRALGTGGAPELGSLRPGDRALEDRRLSLNQSRGQSDLLMQYPKAQGSRVPLETNSSARPARRAPDERRQTLGHSQLDLITKFGPFRGEGPGPNGLPISSPARTAGAGSGDEKRLTLGHSKLDLITKYHQLHGARQGTEPGGPKGGHLNGGNSDLVRDEKRLTLGHSKLDLITKYNKSKFKQLRSRFES
# B7: Protein FAM83H (Homo sapiens), Q6ZRV2 (parent)
# chain: B1 partner
# Variants of: B1
# Conditions: with fa83h_human FAM83H
row,Variant,effect of a mutation on the interaction
1,N141A,with no effect

# Variants of: B2
# Conditions: with kc1a_human CSNK1A1, P48729
row,Variant,effect of a mutation on the interaction
1,F284A,disrupting interaction strength
2,D250A,disrupting interaction strength

# Variants of: B3
# Conditions: with kc1a_human CSNK1A1, P48729
row,Variant,effect of a mutation on the interaction
1,D262A,disrupting interaction strength
2,F300A,disrupting interaction strength

# Variants of: B3
# Conditions: with kc1a_human CSNK1A1, P48729
# Remark: another data set of the same source
row,Variant,effect of a mutation on the interaction
1,F296A;F300A,disrupting interaction strength
2,F300A,with no effect
3,F296A,disrupting interaction strength

# Variants of: B4
# Conditions: with fa83e_human FAM83E
row,Variant,effect of a mutation on the interaction
1,N141A,with no effect

# Variants of: B4
# Conditions: with fa83f_human FAM83F
row,Variant,effect of a mutation on the interaction
1,N141A,with no effect

# Variants of: B5
# Conditions: with fa83g_human FAM83G
row,Variant,effect of a mutation on the interaction
1,N141A,with no effect

# Variants of: B6
# Conditions: with kc1a_human CSNK1A1, P48729
row,Variant,effect of a mutation on the interaction
1,F293A,disrupting interaction strength
2,D259A,disrupting interaction strength

# Variants of: B7
# Conditions: with kc1a_human CSNK1A1, P48729
row,Variant,effect of a mutation on the interaction
1,D236A,disrupting interaction strength
2,F270A,disrupting interaction strength

# Variants of: B7
# Conditions: with kc1e_human CSNK1E
row,Variant,effect of a mutation on the interaction
1,D236A,disrupting interaction strength
2,F270A,disrupting interaction strength
